Results as given in EP2330125A2.

T1: CGRP receptor (Homo sapiens (Human)), Q16602
T1 chain 1: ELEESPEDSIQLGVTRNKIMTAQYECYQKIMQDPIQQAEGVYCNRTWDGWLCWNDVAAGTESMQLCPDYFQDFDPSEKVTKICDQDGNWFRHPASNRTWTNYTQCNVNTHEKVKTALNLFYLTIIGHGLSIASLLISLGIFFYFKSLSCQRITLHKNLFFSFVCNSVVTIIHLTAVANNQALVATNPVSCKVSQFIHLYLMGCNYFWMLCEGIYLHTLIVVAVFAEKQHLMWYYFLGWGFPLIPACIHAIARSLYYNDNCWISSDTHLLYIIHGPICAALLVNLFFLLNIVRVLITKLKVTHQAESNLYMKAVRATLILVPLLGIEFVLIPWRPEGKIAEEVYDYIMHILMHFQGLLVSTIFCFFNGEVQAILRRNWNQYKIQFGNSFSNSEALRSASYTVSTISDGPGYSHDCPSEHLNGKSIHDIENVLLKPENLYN
T1 chain 2: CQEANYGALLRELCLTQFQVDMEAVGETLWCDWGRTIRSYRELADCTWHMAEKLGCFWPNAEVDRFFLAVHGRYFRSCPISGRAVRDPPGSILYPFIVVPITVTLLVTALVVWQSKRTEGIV


Key:
[1] = target: GLP-1/GIP/CT (receptors of the 'GLP-1/GIP/CT cyclase' assay); assay: cell-based or functional assay
calcitonin receptor [2] = assay: cell-based or functional assay
calcitonin receptor [3] = assay: calcitonin receptor binding assay
amylin receptor (rat) [4] = assay: 125I-amylin displacement, rat nucleus accumbens membranes
calcitonin receptor [5] = assay: CT receptor binding assay
[6] = target: T1, CGRP receptor (Homo sapiens (Human)), …; assay: CGRP receptor binding assay
amylin receptor (rat) [7] = assay: amylin receptor binding assay

Sequence of calcitonin receptor (P30988 whole entry): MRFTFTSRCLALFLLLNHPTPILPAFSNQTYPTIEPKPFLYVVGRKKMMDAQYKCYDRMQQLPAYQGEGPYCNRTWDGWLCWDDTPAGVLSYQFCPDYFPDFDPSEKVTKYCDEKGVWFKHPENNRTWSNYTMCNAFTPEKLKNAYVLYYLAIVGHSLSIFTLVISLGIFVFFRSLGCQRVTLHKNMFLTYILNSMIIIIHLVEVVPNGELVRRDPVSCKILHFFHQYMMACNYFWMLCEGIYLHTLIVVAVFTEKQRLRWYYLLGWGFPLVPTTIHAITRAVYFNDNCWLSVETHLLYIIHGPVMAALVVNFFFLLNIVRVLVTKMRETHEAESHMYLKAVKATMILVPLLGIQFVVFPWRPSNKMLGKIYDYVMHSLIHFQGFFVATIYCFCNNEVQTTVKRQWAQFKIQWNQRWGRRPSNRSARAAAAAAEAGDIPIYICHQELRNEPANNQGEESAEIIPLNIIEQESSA

Row | Binder | GLP-1/GIP/CT cyclase [1] | CT cyclase (calcitonin receptor [2]) | Receptor Binding (calcitonin receptor [3]) | Receptor Binding (amylin receptor (rat) [4]) | IC50 (calcitonin receptor [5]) [nM] | IC50 [6] [nM] | IC50 (amylin receptor (rat) [7]) [nM]
1 | KCNTATCATQRLANFLVRSSNNLGPVLPPTNVGSNTY (modifications not checked) [Rat amylin] | 5 | 326 | 3 | 0.05 |  |  | 
2 | [#Suc-(bAla)-PYY-(3-36), amide] [#NH-Des-Lys1-Rat Amylin, amide] (modifications not checked) chain 1: not shown chain 2: CNTATCATQRLANFLVRSSNNLGPVLPPTNVGSNTY |  | 645 | 46 |  |  |  | 
3 | DFMGWMDFGKRKCNTATCATQRLANELVRLQTYPRTNVGSNTY (modifications not checked) [CCK/Amylin-sCT hybrid DF(P-CH2SO3)… …] |  |  |  |  | 0.044 | 4.4 | 0.083
4 | DFMGWMDFGKRKCNTATCATQRLANELVRLQTYPRTNVGSNTY (modifications not checked) [27(p-CH2SO3)-PheCCK8(26-33),G,K,R,15Glu,hAmy(1-17),18Arg,sCT(18-26),hAmy(32-37)] |  |  | 0.04 |  |  |  | 
